The assay concerns the target T1, human complement C1q (from natural human complement serum) (human, UniProt P02745 23-245; P02746 28-253; P02747 29-245).
T1 construct: Whole human complement serum was added to the coated MAb; also called complement human serum
The experiment in a line: ELISA, MAb coated on the plate, natural human complement added, detection with anti-human C1q peroxidase conjugate. A general note: In an ELISA, binding on a coated surface is turned into a signal by an enzyme label.

T1 sequence (P02745 23-245 limits assumed, chain 1 of 3): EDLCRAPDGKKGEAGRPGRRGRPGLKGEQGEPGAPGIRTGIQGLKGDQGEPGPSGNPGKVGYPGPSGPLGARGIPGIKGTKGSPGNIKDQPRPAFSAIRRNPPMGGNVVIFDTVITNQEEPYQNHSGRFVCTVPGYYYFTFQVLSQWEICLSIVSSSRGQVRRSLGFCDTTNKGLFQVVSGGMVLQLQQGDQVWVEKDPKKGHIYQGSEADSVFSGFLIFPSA
T1 sequence (P02746 28-253 limits assumed, chain 2 of 3): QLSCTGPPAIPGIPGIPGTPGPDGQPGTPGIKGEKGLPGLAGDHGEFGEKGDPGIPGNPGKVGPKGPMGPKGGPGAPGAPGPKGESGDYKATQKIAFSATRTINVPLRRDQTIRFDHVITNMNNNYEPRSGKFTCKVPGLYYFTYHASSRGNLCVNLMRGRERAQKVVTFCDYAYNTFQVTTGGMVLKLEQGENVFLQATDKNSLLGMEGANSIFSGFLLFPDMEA
T1 sequence (P02747 29-245 limits assumed, chain 3 of 3): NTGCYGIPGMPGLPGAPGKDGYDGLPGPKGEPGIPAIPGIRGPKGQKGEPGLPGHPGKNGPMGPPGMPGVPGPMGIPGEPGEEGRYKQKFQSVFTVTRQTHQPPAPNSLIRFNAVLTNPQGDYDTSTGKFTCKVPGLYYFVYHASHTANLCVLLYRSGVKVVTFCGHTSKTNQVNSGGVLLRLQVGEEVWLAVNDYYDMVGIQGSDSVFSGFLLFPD
Method: The binding of human complement serum to MAbs was assessed by an ELISA binding assay. The 96-well plates (Nunc) were coated overnight at 4° C. with varying MAb concentrations. After washing, the plates were blocked with PBS-5% BSA for 1 h, and incubated for 1 h with 2.5 μl/well of natural human complement (Sigma). Then, 100 μl/well of a 1/500 dilution of sheep anti-human C1q peroxidase-conjugated Ab (Abd Serotec) added and incubated for 1h. The plates were developed with 100 μl per well of TMB substrate (Uptima Interchim). After H₂SO₄ addition, the OD was measured at 450 nm/630 nm using a MRX II microplate reader. Data represent mean+/−SD of two independent experiments.

B1: chR005-1 Fc24 (antibody, human IgG1, name in EU numbering)
heavy: QVQLQQSGAELVRPGSSVKISCKASGYAFSSYWVNWMKQRPGQGLEWIGQIYPGDGDTNYNGKFKGRATVTADKSSSTSYMQFSSLTSEDSAVYFCARSITTVVGCAMDYWGQGTSVTVSSASTKGPSVFPLAPSSKSTSGGTAALGCLVKDYFPEPVTVSWNSGALTSGVHTFPAVLQSSGLYSLSSVVTVPSSSLGTQTYICNVNHKPSNTKVDKKVEPKSCDKTHTCPPCPAPELLGGPSVFLLPPKPKDTLMISRTPEVTCVVVDVSHEDPEVKFNWYVDGVEVHNAKTKPPEEQYNSTLRVVSLLTVLHQDWLNGKEYKCKVSNAALPAPIAKTISKAKGQPREPQVYTLPPSRDELTKNQVSLTCLVKGFYPSDIAVEWESNGQPENNYKTTPLVLDSDGSFFLYSKLTVDKSRWQQGNVFSCSVMHEALHNHYTQKSLSLSPGK
light: DIQMTQSSAYLSVSLGGRVTITCKASDHINNWLAWYQHKPGNAPRLLISGATTLETGVPSRFSGSGSGKDYTLSITSLQTEDVATYYCQQSWNTPWTFGGGTK
notes: also called chR005-1 MAb Fc24 optimized variant; not shown: human light chain constant region
Consider B1, for which the binding result was “binds”.

These data come from US20130183306A1 (INTERNATIONAL DRUG DEVELOPMENT BIOTECH, published 2013).
